For experiment [1], the target named is T1, recombinant DLL3 ectodomain (rhDLL3-Fc) (human, UniProt Q9NYJ7 27-492, biotinylated (NHS-LC-LC-biotin) in the BLI and SPR assays).
T1 construct: also called rDLL3-Fc; recombinant human DLL3 (rDLL3); not shown: Fc part
T1 sequence: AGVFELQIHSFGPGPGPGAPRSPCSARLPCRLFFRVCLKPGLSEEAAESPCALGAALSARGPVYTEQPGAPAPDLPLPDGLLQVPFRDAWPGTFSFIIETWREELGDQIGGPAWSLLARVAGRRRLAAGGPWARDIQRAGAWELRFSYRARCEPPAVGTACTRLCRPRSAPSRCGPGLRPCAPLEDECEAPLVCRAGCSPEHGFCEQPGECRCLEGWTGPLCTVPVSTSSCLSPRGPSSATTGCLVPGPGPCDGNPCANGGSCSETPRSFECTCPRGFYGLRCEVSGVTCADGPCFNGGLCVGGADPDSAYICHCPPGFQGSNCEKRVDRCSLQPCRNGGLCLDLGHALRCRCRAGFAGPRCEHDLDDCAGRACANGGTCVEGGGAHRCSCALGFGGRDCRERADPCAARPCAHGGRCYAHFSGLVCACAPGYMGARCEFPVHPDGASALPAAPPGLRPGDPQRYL
In words: SPR off-rate, single point (300 nM peptide), biotinylated rhDLL3-Fc on SA chip. The procedure:
The off-rate screening of the peptides was done using a Biacore T200 instrument (Cytiva, Sweden). […] Peptides were diluted at 300 nM in PBS-P+1× buffer (Cytiva, Sweden) supplemented with 1% DMSO and 0.1% BSA, then injected over the ligand for five minutes at 30 μl/min, finally dissociation allowed for 1 h. Sensorgrams were analyzed by Biacore T200 Evaluation Software 3.0 (Cytiva, Sweden): specific binding was obtained by subtracting unspecific binding to naked biosensors and a zero analyte concentration made of binding assay buffer (double referencing). Kinetic parameters of koff were measured using a global fitting according to 1:1 Langmuir binding isotherm equation.

Experiment [2] deals with T1, recombinant DLL3 ectodomain (rhDLL3-Fc). Nature of the experiment: BLI (Octet), biotinylated rhDLL3-Fc on streptavidin sensors. How it is done: (§1) Binding kinetic assays were performed using Bio-layer interferometry (BLI) technology. The recombinant DLL3 ectodomain (rhDLL3-Fc) was biotinylated using EZ-Link Sulfo-NHS-LC-LC-Biotin Kit according to the manufacturer's protocol (Pierce by Thermo Fisher Scientific). The recombinant protein was incubated with an excess of NHS-LC-LC Biotin ester, in a molar ratio of 1:3 (protein: biotin), at 25° C. for 90 min. The un-reacted biotin ester was removed by subsequent buffer exchange on 0.5 ml Zeba spin desalting columns 7K MWCO (Pierce by Thermo Fisher Scientific).

Experiment [3] shares this target. Nature of the experiment: BLI (Octet), biotinylated rhDLL3-Fc on streptavidin sensors; second listing of 1161 in Table 4, rounded. The procedure:
as §1

For experiment [4] the target is unchanged. In words: kinetic assay, method not told for this table (BLI, SPR or flow cytometry). (Flow cytometry measures light scatter and fluorescence of single cells or particles in a stream.)
Experiment [5] deals with T2, human FLT3 expressed on CHO cells (human, UniProt P36888 27-993).
T2 construct: whole, on cells; Negative control cell line; also called CHO huFLT3; CHO huFTL3
Nature of the experiment: flow cytometry, biotin-labelled PepSP1462 detected with anti-streptavidin-AF488 antibody.
Protocol: (§2) Peptide PepSP1462, identified herein was biotin labeled. The biotin labeled peptide was detected using an anti-streptavidin antibody conjugated to AF488. The AF488-labeled peptide was detected directly.
(§3) Binding specificity of the labeled peptide for DLL3 was assessed using DLL3-negative cell lines. […] Cells were then washed twice with FACS buffer and incubated with an anti-streptavidin antibody conjugated to AF488 (Thermo Fisher). […] Cells were then washed twice with FACS buffer an resuspended in FACS buffer that contained 0.5 μg/ml propidium iodide. Cells were analyzed by flow cytometry, using an LSR Fortessa and FACSDiva software (Becton Dickinson) or Flow Jo (Flow Jo LLC).

Experiment [6] addresses T3, mouse DLL3 expressed on CHO cells (mouse, UniProt O88516 33-592).
T3 construct: whole, on cells; also called CHO muDLL3
T3 sequence (looked up): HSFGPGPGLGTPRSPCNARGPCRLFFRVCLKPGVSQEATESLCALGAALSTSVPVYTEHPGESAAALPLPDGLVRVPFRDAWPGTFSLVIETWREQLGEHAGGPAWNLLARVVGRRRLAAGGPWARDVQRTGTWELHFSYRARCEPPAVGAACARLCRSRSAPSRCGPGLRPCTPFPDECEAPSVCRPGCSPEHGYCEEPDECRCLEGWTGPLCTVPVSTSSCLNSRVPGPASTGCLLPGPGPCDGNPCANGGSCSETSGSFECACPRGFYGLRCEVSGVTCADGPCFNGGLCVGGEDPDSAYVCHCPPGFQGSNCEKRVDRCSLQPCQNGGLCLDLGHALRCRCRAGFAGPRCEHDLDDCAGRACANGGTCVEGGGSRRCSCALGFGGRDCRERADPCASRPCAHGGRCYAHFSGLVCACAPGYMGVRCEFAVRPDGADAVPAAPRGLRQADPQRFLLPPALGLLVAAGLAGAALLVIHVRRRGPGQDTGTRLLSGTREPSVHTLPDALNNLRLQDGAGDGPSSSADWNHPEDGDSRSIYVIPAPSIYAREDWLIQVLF
In words: flow cytometry, 100 µM biotin-labelled PepSP1462 detected with anti-streptavidin-AF488 antibody; CHO huFLT3 as negative control cell line.
Protocol: as §2, §3

Experiment [7] addresses T4, rat DLL3 expressed on CHO cells (rat, UniProt O88671 33-589).
T4 construct: whole, on cells; also called CHO rtDLL3; High CHO rtDLL3
T4 sequence (looked up): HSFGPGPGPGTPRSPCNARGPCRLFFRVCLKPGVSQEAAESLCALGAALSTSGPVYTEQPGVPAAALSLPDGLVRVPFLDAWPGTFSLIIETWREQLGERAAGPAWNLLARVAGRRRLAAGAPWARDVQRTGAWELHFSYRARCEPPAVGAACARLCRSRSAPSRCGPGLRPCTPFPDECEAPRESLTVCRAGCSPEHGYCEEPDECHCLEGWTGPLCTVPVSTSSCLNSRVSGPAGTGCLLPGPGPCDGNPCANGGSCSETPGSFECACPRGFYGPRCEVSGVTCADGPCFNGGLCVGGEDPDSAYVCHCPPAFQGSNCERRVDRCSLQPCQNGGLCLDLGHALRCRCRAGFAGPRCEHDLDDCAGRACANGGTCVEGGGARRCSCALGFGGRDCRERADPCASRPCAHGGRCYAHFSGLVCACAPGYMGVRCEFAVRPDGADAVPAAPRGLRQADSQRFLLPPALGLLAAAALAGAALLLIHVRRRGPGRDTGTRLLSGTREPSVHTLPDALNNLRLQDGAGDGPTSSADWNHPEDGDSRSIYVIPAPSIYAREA
Described as above.
Protocol: as §2, §3

Broadly, the koff is the rate constant with which the complex falls apart. As usually defined, the Kd is the equilibrium constant for the complex coming apart.

Numbered stars: 1 amine (or outer) side, 2 acyl side, 3 side chain; on linkers, the order of the positions; unused ones are H or OH. Bridge positions count the residues as written; N and C are the ends. Primed or numbered codes have the meaning given here. Ends that are not written are not given here. K(PEG4-DBCO-FEA) = Lys whose side chain carries PEG4-DBCO conjugated to fluoroethylazide (FEA); Ttds = non-peptide spacer, O=C(CCC(=O)[*:2])NCCCOCCOCCOCCCN[*:1]; Ttds″ = trioxatridecan-succinamic acid linker

B1: PepSP1583 (peptide)
peptide: Ac-AETVEFWWCNGNSENWTCTWGG-{Ttds″-K(Ttds-Ttds-PEG3)}
modifications: disulfide 9-18 (inferred); not fully specified; printed as [Ac-AETVEFWWCNGNSENWTCTW-GG-Ttds-K(Ttds-Ttds-PEG3)]2-PEG4-DBCO-; also: dimer linked via PEG4-DBCO-FEA
notes: also called dimeric FEA derivative of PepSP1489
Consider B1, for which the koff in experiment [1] turned out to be 3.2e-05 s⁻¹.

B2: PepSP1161 (peptide)
peptide: AETVEFWDCWGNTDDWTCTW-NH2
modifications: disulfide 9-18 (inferred)
In the case of B2, the results for the Kd in experiment [2] and in experiment [3] were 42.5 nM and 43 nM, respectively. In addition, in experiment [2], the “RT (residence time)” value is 87.8 s.

B3: PepSP1321 (peptide)
peptide: Ac-AETVEFWGCTGTWGNETCWWGG-{Ttds-Lys-NH2}
modifications: disulfide 9-18 (inferred)
As for B3, the RT in experiment [4] came to 369.

B4: PepSP1581 (peptide)
peptide: Ac-AETVEFWWCNGNSENWTCTWGG-{Ttds″-K(PEG3)}
modifications: disulfide 9-18 (inferred); also: dimer linked via PEG4-DBCO-FEA
notes: also called dimeric FEA derivative of PepSP1487
B4: in experiment [1], the koff is 3.4e-05 s⁻¹.

B5: PepSP1582 (peptide)
peptide: Ac-AETVEFWWCNGNSENWTCTWGG-{Ttds″-K(PEG4-PEG3)}
modifications: disulfide 9-18 (inferred); also: dimer linked via PEG4-DBCO-FEA
notes: also called dimeric FEA derivative of PepSP1488
B5: the koff in experiment [1] came out at 3.6e-05 s⁻¹.

B6: PepSP1462 labeled with biotin (peptide)
peptide: Ac-AETVEFWWCNGNSENWTCTWGG-{Ttds-K(PEG4-DBCO)-NH2}
modifications: disulfide 9-18 (inferred); also: biotin label, site of attachment not given here
notes: also called PepSP1462-biotin peptide; labeled PepSP1462 peptide
On to B6, for which the binding result in experiment [5] was “no binding (tested: 100 µM)”; in experiment [6], “binds”; in experiment [7], “binds”.

B7: PepSP1342 (peptide)
peptide: Ac-AETVEFWWCNGNSENWTCTWGG-{Ttds-K(Ttds-Ttds)-NH2}
modifications: disulfide 9-18 (inferred)
notes: also called PspSP1342
On to B7, for which the RT in experiment [4] was 199.

B8: PepSP1324 (peptide)
peptide: Ac-AETVEFWWCNGNSENWTCTWGG-{Ttds-Lys-NH2}
modifications: disulfide 9-18 (inferred)
As to B8, in experiment [4], the RT amounted to 189.

B9: PepSP1538 (peptide)
peptide: Ac-AETVEFWWCNGNSENWTCTWGG-{Ttds″-K(PEG4-DBCO-FEA)-NH2}
modifications: disulfide 9-18 (inferred)
notes: also called monomeric Fluoroethylazide (FEA) derivative of PepSP1462
With B9, in experiment [1], the koff came out at 0.0039 s⁻¹.

The record behind these values is patent US20250074943A1 (Amgen, published 2025).
